From PMC8196545 (Cell reports, 2021)

Biological target: HIV-1 NL4-3 Env on infected cells (HIV-1 group M subtype B, NL4-3 (pNL4-3 …, strain))

Binder	binding result
c9596 (antibody, V domains shown) VH: EVQLVQSGAEVKKPGTTIKISCKVSGYSFTDSFIHWLKQTPGKGPEWMGLIDPEASDGNKLYAERFQGRLTITADTTTDTAYMELSSLTSDDTAIYYCASQSPSFSDNSRFYGFFDHWGQGTLVNVAS VL: DIVMTQSPDSLTVSLGERATFNCKSSQSVLDSSDNKNYLSWYQQKPGRPPKLLIYWASIRRSGVPDRFSGSGSGTDFTLTISSLQAEDAAVYFCQQYHTAPFTFGPGTKVDIK	binds
c754 (antibody, V domains shown) VH: QVQLVQSGPEVKKPGASARVSCKASGYMFSNNGISWVRQAPGQGLEWMGWISPQNGETLYAHKFQGRVSLTMDTSTNTAFLELTRLRSDDTAVYFCAREAHEDCGEENCFAETWLDTWGQGTQIIVSS VL: QSVLTQPPSASGTPGQRITMPCSGSNSNIGRRSVCWFQQFPGAAPKVVLYKDSQRPSGVPDRFSGSKSGTSASLTISGLRSDDEADYFCAAWDDSLNVWAFGGGTKLTVL	binds
c5407 (antibody, V domains shown) VH: QMQLQESGGGRVRPLETLSLACSVSGGSISGDGYYWTWIRQTPGRALEWIGHIHHYGITNYNPSLKSRLTISLDKPKNQFFLTLTSVTVADTALYFCARTFYTFWSGPHDFLDLWGHGTAVIISL VL: EIVMTQSPVTLSASPGERVALSCRASQSISTKLAWYQQRPGQAPTLLISGASSRASGTPARFSGSGSGADFTLTISTLQPEDFVLYFCQQYKEWPLTFGPGTKLEIK	binds
c8597 (antibody, V domains shown) VH: EVKLEASGGGLAQPGQSLRLSCIGSGFKFADYGLSWVRQTPGKGLQWVGFIRGRGSEATKHYAASVAGRFSMSRDDSKNIAYLQMKNLKTYDTGVYYCAREQYSFDFWSGYEDPYYYYMDLWGRGTTVTVSS VL: DIQMTQSPAALSASIGDRVTISCRASQNIRDWVAWYQQKPGKAPNLLIYRASTLQTAIPSRFSASGFGTDFTLTISSLQPDDFATYFCQHYNSHFTGYSFGQGTKLEIK	binds
c7487 (antibody, V domains shown) VH: AVTLRQSASEVKKPGTTLKMSCKGSGFSFAESFIYWFRQAPGKRPEYLGLIVPGVSDTVYPDNLKARVAITADTSIETVYLQLSSLTSEDTAVYFCATTTYCSPETCEVAFDVWGQGTTIIVSA VL: QSALTQPPSASGTPGQRVTIPCSGGSSNVGNNFVSWYQQLPGTAPRLLIYQDNVRPSGVPDRFSGSKSGASASLVISGLRSEDEADYYCCSWEDSLRGPLFGGGTKVTVL	binds
c2785 (antibody, V domains shown) VH: QVQLVQSGAEMKKPGSSVKVSCKASGGSFRSFTVNWVRQAPGQGLEWVGRIIAIFGSVDYAQKFQGRVTISADESTSTFYMDIRSLKSEDTAVYYCVRDGLVGGRDFWGQGTQVTVSS VL: EIVLTQSPGTLSLSPGERATLFCRASQSIKKNYVAWYQQNPGQAPRLLIYGASSRATGTPDRFSGSGSGTDFTLTISRLEPEDFAVYYCQQYGSAQYSFGQGTKLEIK	binds
c7490 (antibody, V domains shown) VH: QVRLIQSGTLVARPGSSVKVSCQAPGDILANDAVAWVRQAPGQSLEFLGGLPSNFAVGVRAPKFEDRLSIKVDRATKTVHMELRDLTFDDTAIYYCVTCPQRTSVVMSFYFQHWGQGSLVAVSS VL: DIQMTQSPASVSASVGDRVTISCRASEEISGRLAWYQQRPGQGPKLLISHTSTLQSGVPSRFTGSGSGTDFTLTISSLQPEDSATYYCQQAQYFPPTFGQGTRLDLK	binds
c8603 (antibody, V domains shown) VH: AVQFLQSGAEVKKPGESLKISCQDRGYGFNDYWIAWVRQMPGKGLEWMGLIYPDDSDTRYSPSFQGQVTILADKSINTAYLQWNSLKASDSAIYYCARLMVVDERSENTFDIWGQGTVVTVSS VL: SSGLTQSPSLSVSPGQTATVTCSGDPLVNHFASWYQQQPGQSPILVIYQDNQRPSGIPERFSGSKTGNTATLTIGETQAADEADYFCQSWDITTAGMIFGGGTKLTVL	binds
c5482 (antibody, V domains shown) VH: EVQLVESGGGLAQPGGSLRLSCAASGFDFNNYWFYWVRQAPGRGLVWVARVNADGSNTRYVDSVRGRFTISRDSAKKIVYLEMNSVRDEDTAIYYCSRDTFVRVSSTHGYWSGMDVWGHGTTVTVAS VL: SNELTQPPSVSVSPGQTATITCSGDVLSRQFVYWYQQKPGRAPVLVMYKDNERPSGIPERFSASSSGTRVTLTISGVQAEDEADYYCQSADNNGAHVFGTGTSVIVL	binds
c8452 (antibody, V domains shown) VH: EVQLDQSGAEMRKPGTTVKISCKVSGYTTTTDYYVHWVQQAPGKGPQWVGLINVEDGDTIYAEAFQGRVSITADTSKRRVFLDLSGLTSEDSALYFCTTQSLETDTGDYVSAFDSWGQGTLVSVSP VL: QSVLTQPPSVSAAPGQKVIISCSGRTSSVGTNFVSWYQQVPGAAPKLLIYDNENRPSGISDRFSASTSGTSATLAITALQSGDEADYYCGTWDSGLNPAIFVFGTGTRVSVL	binds
c8553 (antibody, V domains shown) VH: QVQLVQSGAEMKMPGSSVKVSCKTSGGTFGSDSLNWVRQAPGQGLEWMGAIIPVFRTATYAQKFQGRVTITADTSTSTVSMDFYNLKSEDTAVYFCARFLLTSGDDIRDFFDLWGPGTMVTVSS VL: PSELTQDPAVSVPLGQTVKISCRGDNLGTYYTSWYQQKAGQAPLAVIYGDNKRPSEIPERFSGSSSGNTASLTITGARAEDEADYYCNSRDKSGSHVVFGGGTKLTVL	binds
c9517 (antibody, V domains shown) VH: QVKLQESGPGLVKPSETLSLTCVVSGVSISQSDYFWNWLRQTPGKGLEWLGFISYSGDSFFNPSLGSRLAMSVDTSSNHISLSLKSMTAADAAVYYCARTFCDDVKCYPLFDSWGHGKLVAVSS VL: DIVMTQSPDSLPLSPGERASINCQSSQSVLYSSDNRNYLAWYQLKPGQPPKLLIYWASVRASGVPDRFSGSGSGTDFTLSISSLQAEDVAVYYCQQYYITPYSFGQGTKVEIR	binds
c11461 (antibody, V domains shown) VH: AGHLVESGGKLIRPGGSLSLSCVASGFTFRNAHMTWVRQVPGQGLEWIALMKSHADGSHTDYSPSVKNRCAISRDDSTSSLYLHLYNLQLDDTGIYFCVHLSSPDEWGLGTPVTVYS VL: HIVLTQSPVTLSGSQGDTVALSCRANESLRSHLAWYQQRPGQRPKLLIYEVSRRPPATPPRFSGSGSGTDFTLIIRGLEPEDSAVYYCQQGDFWPFSFGQGTNLEIT	binds
c13155 (antibody, V domains shown) VH: DVQLLESGGGLVQPGGSLRLSCAGSGYPFSTSDMGWVRQAPGKGLEWVAAIGRSGDGIHYAESVKGRFTISRDNSNNSIYLQMSDLRGDDTGVYYCAKSGWGWCKRGSCSLTVDYWGQGALVTVSS VL: EIVLTQSPATLSLSPGERATFSCRASQSVGSYLAWYQQKVGQSPRLLIYDSVNRGEGIPGRFSGRGVGTDFTLTIDAVEPEDFAVYYCQQRQIWPLTFGGGTKLEIK	binds
c8582 (antibody, V domains shown) VH: QVHLVQSGAEVKKPGSSVKVSCKASGGSFSDYGISWVRQAPGQGLEWMGGIIPGFETTKFAQGLQGRLTMTADESSSTAYMVLNRLRPQDTGVYYCATTGQQNDYYSSGTSYKLNFYFGMDVWGQGTTVTVSS VL: QSVLTQPPSSSGTPGQRVTITCSGGSSNIETNSVHWYQQLPGAAPKTVISATHQRPSGVPDRFSASKSGASASLAISGLQSEDEADYYCAVWDDSLNTWVFGGGTKLTVL	binds
c9433 (antibody, V domains shown) VH: QVQLVQSAAELRKPGESVKVSCKASGYRFTSYAISWVRQAPGQGLEWMGWMSPHSRTANYAQRFQGRVTMTTDTSTSTASMELRTLRSDDTAIYYCARRVYDWDIKETRLDPWGQGTLVTVSS VL: not shown	binds
c27194 (antibody, V domains shown) VH: QVHLVQSGDELKKPGSSVKVSCTAAGGTLNKYPITWVRQAPGQGLEWMGTLSPLFGTTDYGQKFQGRLTITTDGSAAHMVLAALTPDDTAVYFCATDKAMGVLPALHFWGQGTLITVSS VL: EIVLTQSPGTLFLSPGERASLSCRASQNIGGLLAWYQQKPGQSPRLLIYDASNRATGIPARFSGSGSGTDFTLTISSLEPGDIAIYFCQQRSSWPVTFGGGTKVQIK	binds
c8517 (antibody, V domains shown) VH: QVTLKESGPTLLRPADTLTLTCNFSGFSLTTDGVALGWMRQSPGKAPEWLAFLFYDDDKQYNPHLKSRLIISKASSTNQLVLAMTNMGPGDAGTYFCARLNVLVHDVPPRNYGLDVWGRGITITVSS VL: DIVLTQSPVSLSVTPGQSASMSCKSSETLLHEDGKSYLYWYLQKPGQSPQLLIYEASKRFSGVSDRFTASGTGTHFTLQIDRVEVDDVGVYYCMENLKALTFGGGTRMEIK	binds
c6539 (antibody, V domains shown) VH: QVRLIQSGTEVARPGSSVRVSCQVPGDILDKNAVAWVRQAPGQVPEFMGGLPSNFAYGVRAQKFEDRLSIIPDRSTNTVDMILRSVTSHDTAIYYCVTCPHRTTVIMSFYFEFWGQGTLVAVSS VL: DVTVTQSPASVSASVGDRVTISCRASEDLMGRLAWYQQKPGHAPKLLISHTSTLQSGVPSRFTGSGSGADFTLTISSLQPEDSATYYCQQAQRFPPTFGQGTRLEIK	binds
c9368 (antibody, V domains shown) VH: QMQLVQSGAELKKPGSSVKVSCKASGGTVSSESVSWVRQAPGHGLEWMGGIIPMFGATNYAQRFQGRVTITADTSTSTAYMELRGLKFEDTAMYYCAREGDPGDYDSGRGLSNAFDIWGQGTMVSVSS VL: EIVMTQSPGTLSVSPGERATLSCRASQSVSSNLAWYQQKPGQAPRLLIYGASTRATGIPARFIGSGSGTEFTLTISSLQSEDLAIYYCQQYNSWPPQYTFGQGTKLEIK	binds
c7484 (antibody, V domains shown) VH: AVHLTQSGTEVKRPGTSVRISCKGSGFVFRDSFIYWLRQAPGKGPQYLGLIDPGNADTVYPDNFKDRVSITADTSVSTTYLELRRLQFDDTALYFCATTTYCSADSCELALDVWGQGTTVTVSS VL: QSLLTQPPSASGAPGQSVTISCSGGASNIENNYVVWYQQVPGTAPKLIIYQDNVRPSGVPDRFSGSKSGASGSLLISGLRSEDEADYYCSSWDDSVRGPLFGGGTKVTVL	binds
c5333 (antibody, V domains shown) VH: EVQLLESGGGLVKPGGSLRLSCEASGYTFDSYGMSWVRQVPGQGLEWVSAINPNGRGTDYADSVKGRFTISRDNSRNILYLNMKNLRADDSAIYYCAKEWQLPFYPSLGPKFDFWGLGTRVTVSS VL: YIALTQSPLSLAVTPGEPASISCKSSQSLLHSNGFHFLDWYLQKPGKSPQLLIFLGFRRASGVPDRFSASGSGTDFILQISRVEAEDVGVYFCMQGLQTPLTFGGGTKLEIK	binds
